1 molecule from patent US20190033318A1 (UNIVERSITY OF SOUTHAMPTON, published 2019) can be followed below.

In assay [1] the target is T1, HIF-2α (construct not given) (UniProt Q99814 1-360, limits assumed).
T1 construct: also called HIF-2 ELISA
The assay is described as follows: HIF-2 ELISA, inhibition of HIF-2α/HIF-1β dimerisation. (ELISA stands for enzyme-linked immunosorbent assay.)

Assay [2] deals with T2, 2α PASB (HIF-2α PASB domain, 240-350) (UniProt Q99814 240-350, labelled with NT-647-NHS dye in MST; 15N (and 13C 15N) labelled in NMR).
T2 construct: range 240-350; also called PAS B domain of HIF-2α; not shown: His6 tag of vector pET28, then Met
The assay is described as follows: fluorescence polarisation, 2α PASB titrated into 2 µM fluor-CRVIIF. On the procedure: Kd values were determined by fluorescence polarisation (FP) using fluorescently labelled cyclo-CRVIIF (fluor-CRVIIF) (SEQ ID NO 4) dissolved in DMSO as the probe. In each condition, the concentration of the probe was kept constant (2 μM, 1% DMSO) whilst proteins were titrated. Reactions were performed in HIF assay buffer with the addition of 0.1% Triton X-100. Samples were assembled in black 96-well plates (40 μL/well, in triplicate) and allowed to equilibrate for 2 hr in the dark. Plates were read using a POLARstar Omega plate reader (BMG Labtech) at Ex: 490 nm, Em: 520 nm, with target gain set to 300 mP. Polarisation data were plotted and Kd values calculated by non-linear regression using GraphPad Prism 6.
(Polarisation of emitted light reports the rotation of a fluorescent probe.)

T2 sequence (Q99814 240-350): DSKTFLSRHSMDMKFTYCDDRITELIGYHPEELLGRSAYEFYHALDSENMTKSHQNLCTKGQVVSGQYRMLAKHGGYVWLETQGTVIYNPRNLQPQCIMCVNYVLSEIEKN
T1 sequence (Q99814 1-360 limits assumed): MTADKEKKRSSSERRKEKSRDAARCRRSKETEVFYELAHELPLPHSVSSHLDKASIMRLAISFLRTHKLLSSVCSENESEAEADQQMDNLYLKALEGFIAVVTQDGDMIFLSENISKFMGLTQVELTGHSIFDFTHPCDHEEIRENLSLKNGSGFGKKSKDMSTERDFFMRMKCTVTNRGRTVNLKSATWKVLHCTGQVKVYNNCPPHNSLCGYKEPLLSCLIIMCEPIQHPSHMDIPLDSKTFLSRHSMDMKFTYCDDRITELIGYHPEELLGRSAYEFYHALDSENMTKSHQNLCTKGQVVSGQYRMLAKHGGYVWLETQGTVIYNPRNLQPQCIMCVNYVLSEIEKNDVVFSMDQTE

Take cyclo(C(FITC‑maleimide)RVIIF) (not fully specified; printed as fluor-CRVIIF, also called FITC-CRVIIF) [fluorescently labelled cyclo-CRVIIF (fluor-CRVIIF) (SEQ ID NO 4)]: in assay [1], the “Activity as measured by a HIF-2 ELISA” value came out at 1.46 µM. Also, the dissociation constant (Kd) – broadly, the constant that tells how readily two partners part at equilibrium – in assay [2] came out at 18.5 µM.
